# B1: EZH2 promoter GC-rich oligo, mutant (dsDNA)
# DNA 1: ACTTGGCTTCCAGCACCCGAAAAGCTTCTCCAACGTTCGGGAACTCTGCGGCGCCG
# DNA 2: CGGCGCCGCAGAGTTCCCGAACGTTGGAGAAGCTTTTCGGGTGCTGGAAGCCAAGT
# B2: EZH2 promoter GC-rich oligo, wild type (dsDNA)
# DNA 1: ACTTGGCTTCCAGCACCCGCCCCGCCCCTCCCCCGCCCGGGAACTCTGCGGCGCCG
# DNA 2: CGGCGCCGCAGAGTTCCCGGGCGGGGGAGGGGCGGGGCGGGTGCTGGAAGCCAAGT
# Biological target: Sp1 (UniProt P08047 2-785)
# Assay: EMSA
# Sequence of Sp1 (P08047 2-785): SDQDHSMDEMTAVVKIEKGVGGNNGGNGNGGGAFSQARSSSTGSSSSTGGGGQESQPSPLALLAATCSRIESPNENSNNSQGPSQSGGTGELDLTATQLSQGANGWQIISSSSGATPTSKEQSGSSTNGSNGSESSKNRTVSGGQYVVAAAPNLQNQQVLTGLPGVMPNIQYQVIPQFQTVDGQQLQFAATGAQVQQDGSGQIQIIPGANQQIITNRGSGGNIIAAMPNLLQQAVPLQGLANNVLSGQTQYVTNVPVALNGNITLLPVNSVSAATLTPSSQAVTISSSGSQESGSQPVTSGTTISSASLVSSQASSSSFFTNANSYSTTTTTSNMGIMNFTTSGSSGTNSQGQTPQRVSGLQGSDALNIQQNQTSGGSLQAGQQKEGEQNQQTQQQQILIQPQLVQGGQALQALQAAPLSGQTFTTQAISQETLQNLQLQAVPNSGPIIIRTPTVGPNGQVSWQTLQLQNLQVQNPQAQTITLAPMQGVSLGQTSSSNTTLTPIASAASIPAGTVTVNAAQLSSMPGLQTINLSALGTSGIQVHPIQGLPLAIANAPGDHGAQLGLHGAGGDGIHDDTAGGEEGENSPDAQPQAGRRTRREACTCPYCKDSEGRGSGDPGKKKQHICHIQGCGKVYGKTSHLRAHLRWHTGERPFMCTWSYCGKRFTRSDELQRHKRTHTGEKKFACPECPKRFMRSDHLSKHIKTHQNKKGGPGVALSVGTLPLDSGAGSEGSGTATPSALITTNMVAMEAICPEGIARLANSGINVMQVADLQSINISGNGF
row,Binder,binding result
1,B1,no binding
2,B2,binds
